Read-outs that look alike come from different tables or passages of the source. Blank lines part the entries; values can stand above or below the molecule they belong to.
Assays:
[1] = target: PKR (Homo sapiens) (UniProt P19525); settings: cited from earlier work
[2] = target: PKR (Homo sapiens) (UniProt P19525); experiment: sedimentation equilibrium; settings: cited from earlier work
[3] = target: PKR kinase kinase domain (Homo sapiens) (UniProt P19525); settings: cited from earlier work
[4] = target: T1, PKR (Homo sapiens, UniProt P19525); experiment: sedimentation equilibrium
T1 chain: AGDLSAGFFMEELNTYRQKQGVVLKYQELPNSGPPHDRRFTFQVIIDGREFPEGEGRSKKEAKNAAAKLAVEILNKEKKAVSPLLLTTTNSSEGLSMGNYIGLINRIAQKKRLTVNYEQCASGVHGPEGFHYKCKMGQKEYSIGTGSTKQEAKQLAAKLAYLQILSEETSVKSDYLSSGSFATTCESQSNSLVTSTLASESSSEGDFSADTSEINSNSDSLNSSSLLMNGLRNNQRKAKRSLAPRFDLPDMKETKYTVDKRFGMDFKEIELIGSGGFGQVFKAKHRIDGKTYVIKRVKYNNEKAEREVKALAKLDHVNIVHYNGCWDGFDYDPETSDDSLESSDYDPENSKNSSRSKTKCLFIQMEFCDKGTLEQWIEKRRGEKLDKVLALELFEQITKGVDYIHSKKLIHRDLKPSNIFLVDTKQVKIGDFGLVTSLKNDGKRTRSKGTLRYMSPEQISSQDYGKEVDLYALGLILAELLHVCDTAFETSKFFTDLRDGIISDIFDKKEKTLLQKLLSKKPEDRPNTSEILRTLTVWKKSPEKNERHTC

Molecule: PKR (from UniProt P19525)
Kd [1]: 500 µM
Kd [2]: 450 µM

Molecule: PKR second dsRBD dsRBD2 (from UniProt P19525)
Kd [3]: 250 µM

Kd [4]: 1260 µM
B1: PKR (protein)
chain: T1 chain
modifications: K371pAzF labeled with Alexa Fluor 488-DIBO

Kd [4]: 94 µM
B2: PKR (protein)
chain: T1 chain
modifications: K261pAzF labeled with Alexa Fluor 488-DIBO

From article PMC4641775 (2016)
